Measured values: paper PMC7987023 (bioRxiv, 2021)

Biological target: SARS-CoV-2 6P stabilized S trimer (SARS-CoV-2, Wuhan-Hu-1 reference, UniProt P0DTC2, stabilised)
Experiment: cryo-EM structure

B1: C051 Fab (Fab, V domains shown)
VH: EVQLVESGGGLIQAGGSLRLSCAASGFGVRNNYMSWVRQAPGKGLEWVSVIYSGGTTYYADSVKGRFTISRDNSKNTVFLQMNSLRAEDTAVYYCAREGDVEGFSDLWSGYSRDRYYFDYWGQGTLVTVSS
VL: QSVLTQPASVSGSPGQSITFSCTGTSSDVGGYNYVSWYQQYPGKAPKLLIYDVTNRPSGVSDRFSGSKSGNTASLTISGLQAEDEADYYCSSFTSSNTRVFGTGTKVTVL
binding result: binds
